Measurements published in patent US20220204643A1 (published 2022).
Each block holds one binder with its values, some of them ahead of it.

Columns and labels:
[1] = target: T1, zinc finger protein 431, transcript variant 2 (human, UniProt Q8TF32 1-576)
T1 construct: HuProt array protein, full-length recombinant from yeast; also called ZNF431

nudix hydrolase 21 = target: T2, nudix hydrolase 21 (human, UniProt O43809 2-227)
T2 construct: HuProt array protein, full-length recombinant from yeast; also called NUDT21
T2 sequence (O43809 2-227 limits assumed): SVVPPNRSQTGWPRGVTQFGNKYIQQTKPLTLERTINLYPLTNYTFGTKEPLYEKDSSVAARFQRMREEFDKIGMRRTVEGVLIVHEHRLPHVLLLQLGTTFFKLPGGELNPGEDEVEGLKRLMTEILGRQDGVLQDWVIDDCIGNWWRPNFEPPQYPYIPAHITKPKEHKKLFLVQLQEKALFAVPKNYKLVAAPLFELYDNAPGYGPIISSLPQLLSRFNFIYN

Zinc finger protein 699 = target: T3, Zinc finger protein 699 (human, UniProt Q32M78 1-642)
T3 construct: HuProt array protein, full-length recombinant from yeast; also called ZNF699
T3 sequence (Q32M78 whole entry): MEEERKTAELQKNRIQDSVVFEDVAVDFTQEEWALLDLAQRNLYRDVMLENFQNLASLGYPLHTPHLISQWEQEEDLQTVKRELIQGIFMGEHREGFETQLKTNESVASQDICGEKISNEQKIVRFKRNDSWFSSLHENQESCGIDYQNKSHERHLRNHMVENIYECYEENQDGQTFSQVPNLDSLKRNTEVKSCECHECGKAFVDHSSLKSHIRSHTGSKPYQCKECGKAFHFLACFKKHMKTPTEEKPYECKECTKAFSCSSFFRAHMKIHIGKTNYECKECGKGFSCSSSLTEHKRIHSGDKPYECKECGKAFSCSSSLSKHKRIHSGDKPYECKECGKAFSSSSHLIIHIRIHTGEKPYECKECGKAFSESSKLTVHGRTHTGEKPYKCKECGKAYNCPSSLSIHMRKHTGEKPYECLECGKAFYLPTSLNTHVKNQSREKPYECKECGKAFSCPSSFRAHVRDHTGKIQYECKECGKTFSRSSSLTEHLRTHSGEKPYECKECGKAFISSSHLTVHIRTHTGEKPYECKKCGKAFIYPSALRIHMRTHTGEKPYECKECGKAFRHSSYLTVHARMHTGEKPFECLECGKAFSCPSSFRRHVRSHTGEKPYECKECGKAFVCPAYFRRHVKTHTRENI

[2] = target: T4, arginine and glutamate rich 1 (human, UniProt Q9NWB6 1-273)
T4 construct: HuProt array protein, full-length recombinant from yeast; also called ARGLU1
T4 sequence: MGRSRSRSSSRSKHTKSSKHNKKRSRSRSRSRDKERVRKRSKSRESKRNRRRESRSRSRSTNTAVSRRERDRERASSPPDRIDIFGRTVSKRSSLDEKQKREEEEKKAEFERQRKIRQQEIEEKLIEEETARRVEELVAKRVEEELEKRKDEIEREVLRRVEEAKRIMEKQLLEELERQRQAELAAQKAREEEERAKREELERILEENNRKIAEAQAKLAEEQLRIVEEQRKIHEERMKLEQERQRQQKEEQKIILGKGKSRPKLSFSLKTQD

[3] = target: T5, SAS-6 centriolar assembly protein, transcript variant 2 (human, UniProt Q6UVJ0 168-657)
T5 construct: HuProt array protein, full-length recombinant from yeast; also called SASS6
T5 sequence: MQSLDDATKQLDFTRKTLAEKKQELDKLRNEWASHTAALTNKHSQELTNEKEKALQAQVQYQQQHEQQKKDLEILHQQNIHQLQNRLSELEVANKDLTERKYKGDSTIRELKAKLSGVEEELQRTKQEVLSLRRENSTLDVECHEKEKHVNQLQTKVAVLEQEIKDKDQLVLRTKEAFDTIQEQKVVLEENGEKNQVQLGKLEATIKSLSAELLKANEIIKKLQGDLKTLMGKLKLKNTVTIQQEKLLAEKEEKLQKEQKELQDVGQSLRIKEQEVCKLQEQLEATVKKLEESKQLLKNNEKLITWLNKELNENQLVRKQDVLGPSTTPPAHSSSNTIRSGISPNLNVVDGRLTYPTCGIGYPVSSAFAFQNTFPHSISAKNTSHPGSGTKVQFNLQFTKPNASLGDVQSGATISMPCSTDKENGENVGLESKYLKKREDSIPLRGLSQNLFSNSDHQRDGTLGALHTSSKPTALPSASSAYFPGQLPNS

enolase 2 = target: T6, enolase 2 (human, UniProt P09104 2-434)
T6 construct: HuProt array protein, full-length recombinant from yeast; also called ENO2
T6 sequence (P09104 2-434 limits assumed): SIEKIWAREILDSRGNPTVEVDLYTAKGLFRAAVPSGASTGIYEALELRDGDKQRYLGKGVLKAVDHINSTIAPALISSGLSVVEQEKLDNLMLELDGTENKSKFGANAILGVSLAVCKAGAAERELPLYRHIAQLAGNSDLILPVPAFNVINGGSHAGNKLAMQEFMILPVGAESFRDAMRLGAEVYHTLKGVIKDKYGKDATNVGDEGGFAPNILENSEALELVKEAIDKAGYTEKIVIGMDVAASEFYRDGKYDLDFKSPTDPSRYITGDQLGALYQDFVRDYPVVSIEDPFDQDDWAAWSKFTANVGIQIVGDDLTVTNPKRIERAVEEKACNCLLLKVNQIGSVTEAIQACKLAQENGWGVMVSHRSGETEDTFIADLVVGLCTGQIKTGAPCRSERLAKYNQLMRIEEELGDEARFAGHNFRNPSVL

Bcl2 like 1 = target: T7, Bcl2 like 1 (human, UniProt Q07817 1-233)
T7 construct: HuProt array protein, full-length recombinant from yeast; also called BCL2L1
T7 sequence (Q07817 whole entry): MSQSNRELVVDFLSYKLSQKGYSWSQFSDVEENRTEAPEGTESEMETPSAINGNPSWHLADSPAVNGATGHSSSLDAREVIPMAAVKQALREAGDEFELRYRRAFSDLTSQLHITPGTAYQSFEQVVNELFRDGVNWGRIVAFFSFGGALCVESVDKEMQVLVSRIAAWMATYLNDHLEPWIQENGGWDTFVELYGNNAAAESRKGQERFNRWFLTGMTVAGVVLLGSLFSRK

[4] = target: T8, X-linked inhibitor of apoptosis, transcript variant 2 (human, UniProt P98170 1-497); test: protein array
T8 construct: on protein array; also called XIAP
T8 sequence (P98170 whole entry, change not shown): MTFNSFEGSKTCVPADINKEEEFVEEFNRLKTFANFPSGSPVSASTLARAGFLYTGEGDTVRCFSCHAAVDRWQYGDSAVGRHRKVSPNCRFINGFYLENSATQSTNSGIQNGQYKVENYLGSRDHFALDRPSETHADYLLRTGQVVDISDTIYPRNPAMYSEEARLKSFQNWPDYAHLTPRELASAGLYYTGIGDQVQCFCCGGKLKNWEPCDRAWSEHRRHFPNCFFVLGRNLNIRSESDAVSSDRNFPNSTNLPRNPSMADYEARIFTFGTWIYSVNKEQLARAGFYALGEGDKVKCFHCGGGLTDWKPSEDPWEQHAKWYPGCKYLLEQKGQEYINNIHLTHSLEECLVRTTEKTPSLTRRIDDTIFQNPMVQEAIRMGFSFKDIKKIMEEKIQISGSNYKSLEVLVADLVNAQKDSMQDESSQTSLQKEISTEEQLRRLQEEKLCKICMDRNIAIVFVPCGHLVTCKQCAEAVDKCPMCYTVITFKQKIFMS

[5] = target: T9, anterior gradient 3, protein disulphide isomerase family member (human, UniProt Q8TD06 22-166)
T9 construct: HuProt array protein, full-length recombinant from yeast; also called AGR3
T9 sequence: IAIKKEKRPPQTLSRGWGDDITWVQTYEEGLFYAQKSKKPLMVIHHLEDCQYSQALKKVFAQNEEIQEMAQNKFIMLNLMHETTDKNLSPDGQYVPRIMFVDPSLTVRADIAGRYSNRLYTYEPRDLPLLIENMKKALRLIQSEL

PAGE family member 2 = target: T10, PAGE family member 2 (human, UniProt Q7Z2X7 1-111)
T10 construct: HuProt array protein, full-length recombinant from yeast; also called PAGE2
T10 sequence: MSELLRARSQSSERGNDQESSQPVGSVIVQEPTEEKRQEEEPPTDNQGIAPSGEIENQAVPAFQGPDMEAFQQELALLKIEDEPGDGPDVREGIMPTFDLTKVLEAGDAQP

[6] = target: T11, keratin associated protein 12-3 (human, UniProt P60328 1-96)
T11 construct: HuProt array protein, full-length recombinant from yeast; also called KRTAP12-3
T11 sequence: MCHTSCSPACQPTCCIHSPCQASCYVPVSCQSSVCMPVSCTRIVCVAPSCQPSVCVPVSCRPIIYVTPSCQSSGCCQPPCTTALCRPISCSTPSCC

[7] = target: T12, proteasome 26S subunit, non-ATPase 4, transcript variant 2 (human, UniProt P55036 1-377)
T12 construct: HuProt array protein, full-length recombinant from yeast; also called PSMD4
T12 sequence (P55036 whole entry, change not shown): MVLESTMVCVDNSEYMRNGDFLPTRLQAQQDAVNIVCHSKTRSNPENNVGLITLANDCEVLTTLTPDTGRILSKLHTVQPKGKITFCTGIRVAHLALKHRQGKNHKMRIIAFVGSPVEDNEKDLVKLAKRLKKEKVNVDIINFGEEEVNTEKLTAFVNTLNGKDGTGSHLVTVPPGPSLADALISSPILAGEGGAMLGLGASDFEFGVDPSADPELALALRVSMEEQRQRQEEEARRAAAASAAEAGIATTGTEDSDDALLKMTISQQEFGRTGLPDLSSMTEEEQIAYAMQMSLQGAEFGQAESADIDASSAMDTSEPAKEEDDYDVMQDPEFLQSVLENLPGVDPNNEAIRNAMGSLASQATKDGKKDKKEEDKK

[8] = target: T13, Src like adaptor, transcript variant 1 (human, UniProt Q13239 2-276)
T13 construct: HuProt array protein, full-length recombinant from yeast; also called SLA
T13 sequence: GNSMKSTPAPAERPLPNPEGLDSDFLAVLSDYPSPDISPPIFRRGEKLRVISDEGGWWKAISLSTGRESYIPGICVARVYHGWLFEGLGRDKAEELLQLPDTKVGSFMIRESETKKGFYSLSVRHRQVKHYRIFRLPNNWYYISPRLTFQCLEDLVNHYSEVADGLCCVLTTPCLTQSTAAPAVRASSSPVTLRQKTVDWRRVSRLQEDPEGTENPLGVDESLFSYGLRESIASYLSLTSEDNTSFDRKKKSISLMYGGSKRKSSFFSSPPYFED

[9] = target: T14, microtubule associated scaffold protein 2, transcript variant 2 (human, UniProt Q5JR59 1040-1369)
T14 construct: HuProt array protein, full-length recombinant from yeast; also called MTUS2
T14 sequence: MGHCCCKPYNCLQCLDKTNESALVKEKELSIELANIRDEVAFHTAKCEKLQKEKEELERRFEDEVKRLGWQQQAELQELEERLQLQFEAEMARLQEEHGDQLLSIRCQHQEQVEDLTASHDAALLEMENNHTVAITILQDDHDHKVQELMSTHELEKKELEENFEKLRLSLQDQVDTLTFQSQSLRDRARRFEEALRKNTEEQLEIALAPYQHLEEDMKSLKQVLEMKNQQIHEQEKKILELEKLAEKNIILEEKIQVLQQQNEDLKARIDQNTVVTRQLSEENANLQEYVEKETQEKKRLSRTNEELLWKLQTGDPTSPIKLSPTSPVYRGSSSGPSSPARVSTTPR

[10] = target: phosphodiesterase 5A, transcript variant 1 (human, UniProt O76074 1-875)
zinc finger protein 296 = target: T15, zinc finger protein 296 (human, UniProt Q8WUU4 1-475)
T15 construct: HuProt array protein, full-length recombinant from yeast; also called ZNF296
T15 sequence: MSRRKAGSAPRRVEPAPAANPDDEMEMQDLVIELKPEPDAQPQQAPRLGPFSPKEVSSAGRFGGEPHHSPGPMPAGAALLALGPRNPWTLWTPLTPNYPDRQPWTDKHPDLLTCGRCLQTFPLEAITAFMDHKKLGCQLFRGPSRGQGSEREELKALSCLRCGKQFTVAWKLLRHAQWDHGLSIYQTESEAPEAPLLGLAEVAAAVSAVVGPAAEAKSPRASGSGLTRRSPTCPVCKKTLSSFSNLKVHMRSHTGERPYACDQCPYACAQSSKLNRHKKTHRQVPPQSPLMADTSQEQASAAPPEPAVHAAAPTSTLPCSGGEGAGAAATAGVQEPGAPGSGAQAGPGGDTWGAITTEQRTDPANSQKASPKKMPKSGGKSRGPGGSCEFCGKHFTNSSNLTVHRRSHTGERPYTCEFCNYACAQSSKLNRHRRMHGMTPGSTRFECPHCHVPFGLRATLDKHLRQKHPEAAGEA

T1 sequence (Q8TF32 other isoform, or with tags, fused parts or gaps mutant limits assumed): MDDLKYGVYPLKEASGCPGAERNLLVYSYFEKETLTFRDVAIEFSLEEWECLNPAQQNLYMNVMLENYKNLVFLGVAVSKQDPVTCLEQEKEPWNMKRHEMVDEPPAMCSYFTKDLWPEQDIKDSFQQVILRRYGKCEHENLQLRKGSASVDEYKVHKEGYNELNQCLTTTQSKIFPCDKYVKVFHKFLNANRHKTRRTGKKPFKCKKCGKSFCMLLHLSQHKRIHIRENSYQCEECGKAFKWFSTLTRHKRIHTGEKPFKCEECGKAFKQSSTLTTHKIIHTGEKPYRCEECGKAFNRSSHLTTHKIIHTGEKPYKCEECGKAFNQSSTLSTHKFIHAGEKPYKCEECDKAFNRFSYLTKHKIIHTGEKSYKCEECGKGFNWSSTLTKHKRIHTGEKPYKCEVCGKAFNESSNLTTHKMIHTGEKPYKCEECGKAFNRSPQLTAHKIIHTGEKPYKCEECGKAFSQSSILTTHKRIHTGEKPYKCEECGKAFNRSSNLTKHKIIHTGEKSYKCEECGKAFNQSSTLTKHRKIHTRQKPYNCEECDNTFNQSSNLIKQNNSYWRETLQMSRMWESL

binding result [1]: binds
binding result (nudix hydrolase 21): binds
binding result (Zinc finger protein 699): binds
B1: TMEL1033 (antibody, V domains shown)
VH: PVQLQESGPGLVKPSETLSLTCTVSGGSVSSGSYYWSWIRQPPGKGLEWIGYIYYSGSTNYNPSLKSRVTISVDTSKNQFSLKLSSVTAADTAVYYCARDRGDYVTHWFDPWGQGTLVTVSS
VL: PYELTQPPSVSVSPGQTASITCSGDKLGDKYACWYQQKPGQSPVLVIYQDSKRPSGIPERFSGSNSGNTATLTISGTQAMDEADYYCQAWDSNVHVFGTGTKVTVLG
notes: detected with anti-human IgG Fc

binding result [2]: binds
binding result [3]: binds
B2: TMEL1031 (antibody, V domains shown)
VH: EVQLVESGGGLVQPGGSLRLSCAASGFTVSSNYMSWVRQAPGKGLEWVSVIYSGGSTYYADSVKGRFTISRDNSKNTLSLQMNSLRAEDTAVYYCARESSAAGYDYWGQGTLVTVSS
VL: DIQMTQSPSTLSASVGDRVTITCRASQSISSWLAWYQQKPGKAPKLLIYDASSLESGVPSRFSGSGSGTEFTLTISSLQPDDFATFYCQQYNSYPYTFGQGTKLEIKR
notes: as for B1

binding result (enolase 2): binds
B3: TMEL1037 (antibody, V domains shown)
VH: PLQLQESGPGLVKPSETLSLTCTVSGGSISSSSYYWGWIRQSPGKGLEWMGSIYYSGSTYYNPSLKSRVTISVDTSKNQFSLNLSSVTAADTAVYYCARHDYRNYFDYWGQGTLVTVSS
VL: not shown
notes: as for B1

binding result (Bcl2 like 1): binds
B4: TMEL1030 (antibody, V domains shown)
VH: QVQLQESGPGLVKPSGTLSLTCAVSGGSISSSNCWSWVRQPPGKGLEWLGEICHSGSTSYNPSLKSRVTISVDKSKNQFSLKLRSVTAADTAVYYCARESPLTVVFDYWGQGTLVTVSS
VL: DIQMTQSPSSLSASVGDRVTITCRASQGIRNDLGWFQQKPGKAPKRLIYAASNLPSGVSSRFSGSGSGTEFTLTISSLQPEDFATYYCLQHNNYPLTFGQGTKVEFKR
notes: as for B1

binding result [4]: binds
B5: TBRE1032 (antibody, V domains shown)
VH: EVQLVESGGGLVQPGGSLRLSCAASGFTFSSYDFHWVRQPTGKGLEWVSAIGTAGDTLYLDSVKGRFTISRENAKNSLYLQMNSLRAGDTAVYYCARVNWNSDTFDSWGQGTLVTVSS
VL: VSSELTQDPAVSVALGQTVRITCQGDSLRRYYASWYQQKAGQAPILVIYGENNRPSGIPDRFSGSGSGNTASLTITGAQAEDEADYYCDSRDSSGNLVVFGGGTKLTVL
notes: VH/VL only

B6: TMEL1020 (antibody, V domains shown)
VH: QVHLVQSGAEVKKPGASVKVSCKASGYTFTNYFIHWVRQAPGQGPEWMGVINPSFGSTTYAQKLQGRVTMTRETSTSTVYMELSSLRSEDTAVYYCARESLDSASYSTIAHWGQGTLVTVSS
VL: EIVLAQSPGTLYLSPGERATLSCRASQSVRGNYLAWYQQRPGQAPRLLIYGASSRATGIPDRFGGSGSGTDFTLTITRLLPEDFAVYYCHQYGSSPRTFGQGTKVEIKR
notes: as for B1
binding result [5]: binds

binding result (PAGE family member 2): binds
binding result [6]: binds
B7: TMEL1035 (antibody, V domains shown)
VH: QVQLVESGGGVVQPGRSLRLSCAASGFTFSSYAMHWVRQAPGKGLEWVAVISYDGSNKYYADSVKGRFTISRDNSKNTLYLQMNSLRAEDTAVYYCASPIAVAAPFAYWGQGTLVTVSS
VL: VSSELTQDPAVSVALGQTVRITCQGDSLRSYYASWYQQKPGQAPVLVIYGKNNRPSGIPDRFSGSSSGNTASLTITGAQAEDEADYYCNSRDSSGNLYVFGTGTKVTVLG
notes: as for B1

binding result [7]: binds
binding result [8]: binds
B8: TMEL1032 (antibody, V domains shown)
VH: QVQLVQSGAEVRKPGASVKVSCKASGYTFTTYYIHWVRQAPGQGLEWMGLINPNGGTTNYAQKFQGRLSMTTDTSTNTVYMELSSLRSEDTAVYYCARKLMSGIVSRGWFDPWGQGTLVTVSS
VL: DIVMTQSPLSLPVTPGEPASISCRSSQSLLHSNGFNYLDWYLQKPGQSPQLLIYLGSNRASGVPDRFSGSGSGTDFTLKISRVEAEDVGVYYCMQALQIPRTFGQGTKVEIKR
notes: as for B1

binding result [9]: binds
B9: TMEL1027 (antibody, V domains shown)
VH: QVQLVQSGAEVKKPGASVKVSCKASGYTFTVYYMHWVRQAPGQGLEWMGRINPNSGGTNYAQKFQGRVTMTRDTSISTAYMELSRLTSDDTAVYYCARVVVVGTDYGMDVWGQGTTVTVSS
VL: VSSELTQDPAVSVALGQTVRITCQGDSLRSYYASWYQQRPGQAPVLVIYGKNNRPSGIPDRFSGSSSGNTASLTITGAQAEDEADYYCNSRDSSGNHVFGTGTKVTVLG
notes: as for B1

binding result [10]: binds
binding result (zinc finger protein 296): binds
B10: TMEL1028 (antibody, V domains shown)
VH: QVQLVQSGAEVKKPGASVKVSCKASGYTFTSYGISWVRQAPGQGLEWMGWISAYNGNTNYAQKLQGRVTMTTDTSTSTAYMELRSLTSDDTAVYYCARDQGLERANWFDPWGQGTLVTVSS
VL: not shown
notes: as for B1
